From US10144929B2, “Polypeptide inhibitors of Smad3 polypeptide activities” (Mayo Foundation for Medical Education and Research, priority 2016, dated 2018) come the findings set out here.

One assay deals with T1, pSmad3 (Mus musculus, UniProt Q8BUN5).
T1 construct: endogenous in cells; host or cells: AKR-2B cells
Briefly: His pull down of pSmad3 by TAT-SNX9(SH3) fusion polypeptides. Type of assay: binding. The settings on record: lysates of TGFβ treated AKR-2B cultures. The procedure: FIGS. 3A-E. Inhibition of Smad3 signaling by a defined region of the SH3 domain in SNX9. (A) Cartoon depicting constructs used for His pull down assays. AKR-2B lysates were incubated with the indicated TAT-SNX9(SH3) fusion polypeptide and immunoblotted for bound pSmad3 or total TAT-SNX9(SH3) fusion polypeptide (His). (B) Nuclear fractions were prepared and assessed as in FIG. 1B following transduction with the indicated TAT-SNX9(SH3) fusion polypeptide (Left). Quantitation (mean+/−sd) of nuclear pSmad2 or pSmad3 from 2 experiments (Right). (C) Immunofluorescence of nuclear Smad3 was determined as in FIG. 1C from 30 cells in each of two experiments in the absence (−) or presence (+) of 5 ng/mL TGFβ and the indicated TAT-SNX9(SH3) fusion polypeptide (1.5 μM). […]
FIGS. 4A-E. A point mutant of TAT-SH3-2 abolishes the inhibitory action on Smad3 responses. […] (E) AKR-2B cells were transiently transfected with a BMP (BRE), EGF (SRE), or PDGF (MMP-1) reporter construct and luciferase activity determined following 12 hour incubation in the absence (−) or presence (+) of the indicated ligand (10 ng/mL BMP4, EGF, or PDGF), inhibitor (10 μM Dorsomophin; 3 μM Lapatinib; 2 μM CP868) or TAT-SNX9(SH3) fusion polypeptide (1.5 μM). […]

Another assay concerns AKR-2B cells. In words: Soft agar colony formation (anchorage-independent growth, AIG). Type of assay: cell-based. The settings on record: 1.5 μM polypeptide, TGFβ 10 ng/mL, seven days. The procedure: FIGS. 2A-C. TAT-SH3 inhibits Smad3-dependent responses. (A) AKR-2B cells were transiently transfected with a Smad3 (3TP), Smad2 (ARE), or Smad1/5/8 (BRE) reporter construct, and luciferase activity determined following 12 hours incubation in the absence (−) or presence (+) of the indicated ligand (5 ng/mL TGFβ; 10 ng/mL BMP4) or TAT-SNX9(SH3) fusion polypeptide (1.5 μM). Data represent the mean+/−SEM of three experiments. (B) RT-PCR analysis of Smad3 (PAI-1 and CTGF) and Smad2 (MMP2) responsive gene following 24 hour treatment of AKR-2B cells with the indicated concentration of TAT-SNX9(SH3) fusion polypeptide or 5 ng/mL TGFβ. Loading was verified by GAPDH expression. (C) Soft agar colony formation was performed following seven days growth in the presence (+) or absence (−) of TGFβ (10 ng/mL) or the indicated TAT-SNX9(SH3) fusion polypeptide (1.5 μM). […]
FIGS. 3A-E. Inhibition of Smad3 signaling by a defined region of the SH3 domain in SNX9. […] (B) Nuclear fractions were prepared and assessed as in FIG. 1B following transduction with the indicated TAT-SNX9(SH3) fusion polypeptide (Left). Quantitation (mean+/−sd) of nuclear pSmad2 or pSmad3 from 2 experiments (Right). (C) Immunofluorescence of nuclear Smad3 was determined as in FIG. 1C from 30 cells in each of two experiments in the absence (−) or presence (+) of 5 ng/mL TGFβ and the indicated TAT-SNX9(SH3) fusion polypeptide (1.5 μM). […]

T1 sequence (Q8BUN5 whole entry): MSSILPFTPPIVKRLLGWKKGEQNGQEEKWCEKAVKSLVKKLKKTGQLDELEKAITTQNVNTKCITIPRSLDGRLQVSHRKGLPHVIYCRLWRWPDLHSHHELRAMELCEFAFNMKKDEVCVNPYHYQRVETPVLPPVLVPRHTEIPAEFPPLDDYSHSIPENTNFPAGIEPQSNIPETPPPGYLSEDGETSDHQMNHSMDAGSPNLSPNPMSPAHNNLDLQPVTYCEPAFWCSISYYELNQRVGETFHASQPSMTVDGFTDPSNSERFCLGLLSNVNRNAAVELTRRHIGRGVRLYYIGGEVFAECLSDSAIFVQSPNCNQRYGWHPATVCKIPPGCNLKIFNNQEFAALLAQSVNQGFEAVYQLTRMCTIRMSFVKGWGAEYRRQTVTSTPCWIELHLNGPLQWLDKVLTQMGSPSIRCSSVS

Regarding “TAT-SH3-2: TAT-SNX9(SH3) fusion polypeptide having SNX9 amino acids 21-51 (31 mer) (TVNEGEIITITNPDVGGGWLEGRNIKGERGL; left off: small tags and cut ends)”, the pSmad3 binding result with pSmad3 is reported as “bound pSmad3 to a similar degree as a TAT-SNX9(SH3) fusion polypeptide having the full length SH3 domain”. The “TGFβ-stimulated anchorage-independent growth in soft agar (AIG)” value in the assay with AKR-2B cells was “prevented”. With “TAT-SH3-2M: TAT-SH3-2 with G to V point mutations at amino acids 36-38; inactive TAT-SNX9 peptide unable to bind pSmad3 (TVNEGEIITITNPDVVVVWLEGRNIKGERGL; left off: small tags and cut ends)”, in the assay with pSmad3, the pSmad3 binding entry is reported as “unable to bind pSmad3”.
